± gives the standard deviation.
Test: protein stability index of a GFP-peptide fusion (GPS, HEK-293T) (PSI 1-6); higher = more stable
Settings: c terminus: a fixed tail appended
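Note: 24-mer peptide tiles fused after GFP, lentivirally expressed, FACS-sorted into six equal bins by GFP/DsRed ratio, decoded by Illumina sequencing, PSI is the read-weighted mean bin number.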

Row | Sequence | protein stability index (treatment: DMSO) | protein stability index (treatment: MLN4924 1 uM, 8 h)
1 | PGSNLNLLTNNSGTPKDHDSPENG [ETS2] | 5.33 ± 0.22 | 5.31 ± 0.26
2 | LGVRRPGGAGKEGVRVNNRFELIN [TCF25] | 3.05 ± 0.39 | 3.12 ± 0.43
3 | NGHTDVADVLLQAGADLEHESEGG [ANKRD17] | 5.37 ± 0.17 | 5.28 ± 0.048
4 | WEVQVSPTCPVCKDRASPADLRTN [TRIM35] | 3.2 ± 0.43 | 3.61 ± 0.27
5 | AMGDHSKKKPGTAMCVGCGSQIHD [ISL2] | 4.18 ± 0.32 | 4.3 ± 0.26
6 | GQLDEKEKDLVGLAQIAEVLEMFD [RHOBTB1] | 3.4 ± 0.37 | 3.61 ± 0.58
7 | SSNLSLDVLRGNDETIGFEDILND [POMP] | 5.08 ± 0.17 | 4.94 ± 0.32
8 | DSASLPRKPSVPWQRQMDQPQDRN [RASAL3] | 4.65 ± 0.22 | 4.78 ± 0.23
9 | NDIPHSIPLEQGSSCNGPGQTTGH [FAN1] | 5.24 ± 0.18 | 5.23 ± 0.1
10 | DLPINVFKLLAGRWPFDHNDFGVF [EDNRA] | 2.19 ± 0.7 | 2.19 ± 0.45
11 | KLQGLENWGQDPGVSANASKAWHQ [PBXIP1] | 3.27 ± 0.27 | 3.37 ± 0.28
12 | NTLSVSYKKGRMMKDISNLEENDE [SLC6A17] | 4.91 ± 0.3 | 5.08 ± 0.23
13 | DRSVQRLLATRIAVYLMTFLIVTV [TMEM175] | 3.15 ± 0.3 | 3.31 ± 0.31
14 | QNQEYKMLLDIKTRLEQEIATYRS [KRT15] | 3.31 ± 0.18 | 3.46 ± 0.37
15 | EKRGFTSHFVFVIEVKTKGGSKYL [NCF4] | 3.02 ± 1.1 | 3.64 ± 1.1
16 | RASALLASCSKNCTNSPAIVRFSG [FBXO34] | 2.24 ± 0.24 | 2.59 ± 0.19

Row | Sequence | protein stability index (treatment: DMSO) | protein stability index (treatment: MLN4924 1 uM, 8 h)
17 | LAGMANHGSPQLGEGMFQHQTSVA [TBX5] | 3.83 ± 0.2 | 3.83 ± 0.13
18 | QGLLGRSPPTRPVPGHRSERAIRT [SPRY1] | 4.51 ± 0.21 | 4.47 ± 0.2
19 | ENQRLFEMLGRKCLTLATAVVQLY [WAS] | 2.26 ± 0.21 | 2.44 ± 0.33
20 | LKNTPRFKRRRVRRRRMETIVFLD [PCMTD2] | 2.9 ± 0.19 | 3.33 ± 0.3
21 | GIMCLKRLNYDRKELEKRREESQH [PPFIA4] | 3.69 ± 0.31 | 3.62 ± 0.4
22 | RTPEPLEEFPKREDQEGSPPETSL [MYBL2] | 5.4 ± 0.36 | 5.56 ± 0.23
23 | GGTPARSGTTLISVIVLDINDNAP [PCDHGC5] | 2.66 ± 1.1 | 2.64 ± 1.6
24 | LTYSTRMSQTVQRMLVAASWACAF [OR3A1] | 3.35 ± 0.71 | 3 ± 0.65
25 | QEENKSLREENKALREENRMLSKE [CBY2] | 5.56 ± 0.47 | 5.587 ± 0.023
26 | EARARARANRGILQQERQRLGQRQ [DNAJC4] | 4.74 ± 0.28 | 4.65 ± 0.14
27 | ETSYLEMAAGSEPESVEASPVVVE [KMT2E] | 5.38 ± 0.27 | 5.18 ± 0.34
28 | SLAYCLACGGGHLLPYFYIIYMAI [DHCR7] | 2.6 ± 0.64 | 2.45 ± 0.31
29 | DRVVAFMDHIRIFQEQVEKLKALH [NR2F2] | 2.28 ± 0.36 | 2.22 ± 0.36
30 | PKAQSAMSPYLVPDTQALCHHLPV [SMG5] | 3.34 ± 0.2 | 3.38 ± 0.12
31 | QEVFEPPHYELCTLRGTGATADFA [NETO1] | 3.91 ± 0.28 | 3.88 ± 0.26
32 | NPFQDPAVIQHRPSRQYATLDVYN [SCAMP3] | 3.6 ± 0.28 | 3.62 ± 0.19
